How the values were obtained:
Test in all cases: cell-based or functional assay
[1] = biological target: AA-TGFB-007 (TGFB-007), TGF-BR2 ECD-TGFBR2 TM-TGFBR2 truncated ICD (Homo sapiens (Human)) (UniProt P37173)
[2] = biological target: AA-TGFB-056 (TGFB-056), TGF-BR2 ECD-CD28 Long TM-SLP76 ICD
[3] = biological target: AA-TGFB-057 (TGFB-057), TGF-BR2 ECD-CD28 Long TM-MYD88 ICD
[4] = biological target: AA-TGFB-059 (TGFB-059), TGF-BR2 ECD-CD28 Long TM-TRAF1 ICD
[5] = biological target: AA-TGFB-060 (TGFB-060), TGF-BR2 ECD-CD28 Long TM-TRAF2 ICD
Sequence of AA-TGFB-060 (TGFB-060), TGF-BR2 ECD-CD28 Long TM-TRAF2 ICD (chain, as listed by the source limits assumed, form in doubt): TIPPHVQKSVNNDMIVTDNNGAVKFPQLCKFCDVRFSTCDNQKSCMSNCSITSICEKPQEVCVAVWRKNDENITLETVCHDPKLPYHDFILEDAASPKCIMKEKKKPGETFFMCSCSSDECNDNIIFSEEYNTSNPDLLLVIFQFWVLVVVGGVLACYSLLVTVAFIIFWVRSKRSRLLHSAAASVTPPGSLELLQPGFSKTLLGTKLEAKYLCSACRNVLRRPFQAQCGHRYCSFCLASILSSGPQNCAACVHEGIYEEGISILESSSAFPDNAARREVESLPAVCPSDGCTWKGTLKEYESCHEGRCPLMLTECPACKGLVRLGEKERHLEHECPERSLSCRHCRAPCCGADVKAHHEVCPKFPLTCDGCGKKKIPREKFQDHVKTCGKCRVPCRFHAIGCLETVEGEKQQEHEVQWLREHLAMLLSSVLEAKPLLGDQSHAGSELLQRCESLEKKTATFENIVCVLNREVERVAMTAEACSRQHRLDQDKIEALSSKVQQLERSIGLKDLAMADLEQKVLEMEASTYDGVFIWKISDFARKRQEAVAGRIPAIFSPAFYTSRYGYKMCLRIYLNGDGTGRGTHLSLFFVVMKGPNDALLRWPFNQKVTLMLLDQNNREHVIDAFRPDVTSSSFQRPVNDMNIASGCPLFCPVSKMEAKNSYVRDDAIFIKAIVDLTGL

[6] = biological target: AA-TGFB-061 (TGFB-061), TGF-BR2 ECD-CD28 Long TM-TRAF3 ICD
Sequence of AA-TGFB-061 (TGFB-061), TGF-BR2 ECD-CD28 Long TM-TRAF3 ICD (chain, as listed by the source limits assumed, form in doubt): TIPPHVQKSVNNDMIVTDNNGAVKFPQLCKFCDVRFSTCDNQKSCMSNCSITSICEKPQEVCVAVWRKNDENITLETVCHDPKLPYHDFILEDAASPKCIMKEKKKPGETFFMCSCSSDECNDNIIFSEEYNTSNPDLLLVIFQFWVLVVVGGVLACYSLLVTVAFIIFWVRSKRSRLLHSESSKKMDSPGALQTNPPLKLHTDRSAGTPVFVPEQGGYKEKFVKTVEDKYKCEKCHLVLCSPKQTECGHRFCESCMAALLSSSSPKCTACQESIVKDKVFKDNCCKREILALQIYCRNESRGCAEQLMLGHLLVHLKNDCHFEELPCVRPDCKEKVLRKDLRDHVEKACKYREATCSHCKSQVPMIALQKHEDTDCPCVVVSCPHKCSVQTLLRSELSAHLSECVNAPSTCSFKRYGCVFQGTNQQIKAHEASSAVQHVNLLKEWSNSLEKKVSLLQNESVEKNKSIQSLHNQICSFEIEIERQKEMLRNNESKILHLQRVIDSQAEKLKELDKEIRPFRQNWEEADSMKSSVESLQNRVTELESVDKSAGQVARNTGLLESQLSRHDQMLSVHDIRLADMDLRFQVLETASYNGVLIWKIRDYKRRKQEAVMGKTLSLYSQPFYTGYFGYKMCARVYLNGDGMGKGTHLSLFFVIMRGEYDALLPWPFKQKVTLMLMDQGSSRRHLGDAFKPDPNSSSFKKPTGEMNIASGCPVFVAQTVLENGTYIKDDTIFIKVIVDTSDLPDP

[7] = biological target: AA-TGFB-067 (TGFB-067), TGF-BR2 ECD-FCGR2A TM-FCGR2A ICD
Sequence of AA-TGFB-067 (TGFB-067), TGF-BR2 ECD-FCGR2A TM-FCGR2A ICD (chain, as listed by the source limits assumed, form in doubt): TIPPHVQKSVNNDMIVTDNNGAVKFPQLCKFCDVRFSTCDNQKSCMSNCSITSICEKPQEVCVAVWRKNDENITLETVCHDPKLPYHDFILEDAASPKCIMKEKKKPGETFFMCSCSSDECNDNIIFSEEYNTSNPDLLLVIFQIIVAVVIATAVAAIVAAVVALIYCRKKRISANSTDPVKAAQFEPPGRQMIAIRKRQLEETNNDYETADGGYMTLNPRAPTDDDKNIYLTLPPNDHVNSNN

[8] = biological target: AA-TGFB-068 (TGFB-068), TGF-BR2 ECD-FCGR3A TM-FCGR3A ICD
Sequence of AA-TGFB-068 (TGFB-068), TGF-BR2 ECD-FCGR3A TM-FCGR3A ICD (chain, as listed by the source limits assumed, form in doubt): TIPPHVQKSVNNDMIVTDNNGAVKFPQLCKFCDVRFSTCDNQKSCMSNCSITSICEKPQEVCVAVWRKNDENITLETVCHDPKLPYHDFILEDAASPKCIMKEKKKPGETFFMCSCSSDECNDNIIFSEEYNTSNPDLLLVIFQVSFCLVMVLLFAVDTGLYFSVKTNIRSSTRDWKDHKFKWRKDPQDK

[9] = biological target: AA-TGFB-069 (TGFB-069), TGF-BR2 ECD-2B4 TM-2B4 ICD
Sequence of AA-TGFB-069 (TGFB-069), TGF-BR2 ECD-2B4 TM-2B4 ICD (chain, as listed by the source limits assumed, form in doubt): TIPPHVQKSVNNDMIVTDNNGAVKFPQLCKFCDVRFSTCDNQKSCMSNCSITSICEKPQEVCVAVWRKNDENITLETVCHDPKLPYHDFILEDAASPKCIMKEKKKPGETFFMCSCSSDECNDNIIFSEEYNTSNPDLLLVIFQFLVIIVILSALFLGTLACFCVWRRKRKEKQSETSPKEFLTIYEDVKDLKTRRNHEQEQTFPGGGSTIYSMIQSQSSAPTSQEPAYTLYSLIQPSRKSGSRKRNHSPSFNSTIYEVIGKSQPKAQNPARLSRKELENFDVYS

[10] = biological target: AA-TGFB-071 (TGFB-071), TGF-BR2 ECD-SLAMF5 TM-SLAMF5 ICD
[11] = biological target: AA-TGFB-077 (TGFB-077), TGF-BR2 ECD-GCSFR TM-GCSFR ICD
Sequence of AA-TGFB-077 (TGFB-077), TGF-BR2 ECD-GCSFR TM-GCSFR ICD (chain, as listed by the source limits assumed, form in doubt): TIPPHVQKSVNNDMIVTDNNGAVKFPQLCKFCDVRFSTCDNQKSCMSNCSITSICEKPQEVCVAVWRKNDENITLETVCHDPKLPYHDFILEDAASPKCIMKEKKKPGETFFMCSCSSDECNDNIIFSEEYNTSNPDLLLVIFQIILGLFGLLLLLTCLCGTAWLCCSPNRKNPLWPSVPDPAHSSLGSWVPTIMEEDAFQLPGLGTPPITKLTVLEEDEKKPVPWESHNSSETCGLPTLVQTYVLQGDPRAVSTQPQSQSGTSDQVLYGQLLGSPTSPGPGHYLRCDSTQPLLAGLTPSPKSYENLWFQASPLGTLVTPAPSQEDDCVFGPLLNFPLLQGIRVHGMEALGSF

[12] = biological target: AA-TGFB-079 (TGFB-079), TGF-BR2 ECD-FGFR1 TM-FGFR1 ICD
Sequence of AA-TGFB-079 (TGFB-079), TGF-BR2 ECD-FGFR1 TM-FGFR1 ICD (chain, as listed by the source limits assumed, form in doubt): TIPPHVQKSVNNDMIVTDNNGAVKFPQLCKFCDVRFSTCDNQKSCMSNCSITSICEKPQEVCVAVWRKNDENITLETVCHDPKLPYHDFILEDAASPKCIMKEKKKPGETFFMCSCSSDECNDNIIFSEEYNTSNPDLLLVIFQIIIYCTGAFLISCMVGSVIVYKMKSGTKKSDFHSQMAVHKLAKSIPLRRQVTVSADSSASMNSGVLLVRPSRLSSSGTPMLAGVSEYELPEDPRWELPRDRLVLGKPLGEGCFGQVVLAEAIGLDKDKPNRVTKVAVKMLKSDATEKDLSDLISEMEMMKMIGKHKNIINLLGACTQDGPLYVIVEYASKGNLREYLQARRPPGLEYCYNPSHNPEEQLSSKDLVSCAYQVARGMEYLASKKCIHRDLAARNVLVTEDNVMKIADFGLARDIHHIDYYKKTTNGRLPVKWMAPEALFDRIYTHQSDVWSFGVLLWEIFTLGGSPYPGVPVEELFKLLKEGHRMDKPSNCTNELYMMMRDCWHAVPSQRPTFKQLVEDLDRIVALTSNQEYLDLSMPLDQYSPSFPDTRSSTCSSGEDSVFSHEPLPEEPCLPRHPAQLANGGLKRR

[13] = biological target: AA-TGFB-082 (TGFB-082), TGF-BR2 ECD-NKp46 TM-NKp46 ICD
Sequence of AA-TGFB-082 (TGFB-082), TGF-BR2 ECD-NKp46 TM-NKp46 ICD (chain, as listed by the source limits assumed, form in doubt): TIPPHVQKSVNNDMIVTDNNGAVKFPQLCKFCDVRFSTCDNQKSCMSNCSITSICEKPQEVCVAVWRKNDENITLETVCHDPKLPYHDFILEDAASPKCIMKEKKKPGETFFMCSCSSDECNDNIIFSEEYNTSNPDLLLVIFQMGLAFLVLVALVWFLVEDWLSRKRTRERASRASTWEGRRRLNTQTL

[14] = biological target: AA-TGFB-086 (TGFB-086), TGF-BR2 ECD-CD28 Long TM-IRAK4 ICD
Sequence of AA-TGFB-086 (TGFB-086), TGF-BR2 ECD-CD28 Long TM-IRAK4 ICD (chain, as listed by the source limits assumed, form in doubt): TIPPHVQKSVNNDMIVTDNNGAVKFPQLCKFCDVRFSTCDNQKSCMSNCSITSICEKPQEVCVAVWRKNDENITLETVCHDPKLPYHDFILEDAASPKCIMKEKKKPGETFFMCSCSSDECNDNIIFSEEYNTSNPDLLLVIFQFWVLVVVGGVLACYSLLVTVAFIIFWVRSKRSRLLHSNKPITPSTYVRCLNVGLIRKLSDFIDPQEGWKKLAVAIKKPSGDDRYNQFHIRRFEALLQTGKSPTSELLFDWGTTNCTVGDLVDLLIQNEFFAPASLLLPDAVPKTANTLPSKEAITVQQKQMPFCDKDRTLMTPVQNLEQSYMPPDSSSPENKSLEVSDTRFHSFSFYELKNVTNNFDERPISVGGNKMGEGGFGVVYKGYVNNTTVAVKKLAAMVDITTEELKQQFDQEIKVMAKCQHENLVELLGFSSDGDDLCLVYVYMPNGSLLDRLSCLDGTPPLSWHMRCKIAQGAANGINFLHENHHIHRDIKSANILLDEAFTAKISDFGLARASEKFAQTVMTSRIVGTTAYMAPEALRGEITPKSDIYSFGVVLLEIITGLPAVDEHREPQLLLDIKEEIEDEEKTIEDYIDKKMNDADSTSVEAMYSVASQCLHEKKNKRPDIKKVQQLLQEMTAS

[15] = biological target: AA-TGFB-088 (TGFB-088), TGF-BR2 ECD-DR3 TM-DR3 ICD
[16] = biological target: AA-TGFB-091 (TGFB-091), TGF-BR2 ECD-CD28 Long TM-Syk ICD
[17] = biological target: AA-TGFB-095 (TGFB-095), TGF-BR2 ECD-CD28 Long TM-YES1 ICD
Sequence of AA-TGFB-095 (TGFB-095), TGF-BR2 ECD-CD28 Long TM-YES1 ICD (chain, as listed by the source limits assumed, form in doubt): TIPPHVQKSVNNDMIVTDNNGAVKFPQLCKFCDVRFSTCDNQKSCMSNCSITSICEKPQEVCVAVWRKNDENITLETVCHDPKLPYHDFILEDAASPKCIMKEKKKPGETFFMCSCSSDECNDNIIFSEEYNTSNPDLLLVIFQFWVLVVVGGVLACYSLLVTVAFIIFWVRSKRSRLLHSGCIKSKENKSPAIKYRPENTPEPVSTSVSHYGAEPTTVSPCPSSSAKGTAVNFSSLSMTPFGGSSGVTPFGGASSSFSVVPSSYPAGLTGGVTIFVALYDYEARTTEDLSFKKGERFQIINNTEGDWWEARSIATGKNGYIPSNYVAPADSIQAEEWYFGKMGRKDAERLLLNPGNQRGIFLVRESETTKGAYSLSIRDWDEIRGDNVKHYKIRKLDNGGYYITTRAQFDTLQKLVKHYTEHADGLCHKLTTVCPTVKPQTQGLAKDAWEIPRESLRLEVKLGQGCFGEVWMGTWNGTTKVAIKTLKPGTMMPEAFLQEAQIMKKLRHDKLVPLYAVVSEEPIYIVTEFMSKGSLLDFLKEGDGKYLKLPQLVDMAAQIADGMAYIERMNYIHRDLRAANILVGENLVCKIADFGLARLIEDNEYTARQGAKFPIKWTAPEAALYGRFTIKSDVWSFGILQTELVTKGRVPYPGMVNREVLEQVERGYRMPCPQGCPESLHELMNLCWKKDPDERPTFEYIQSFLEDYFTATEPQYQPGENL

Sequence of recombinant TGF-B1 cytokine (P01137 279-390 limits assumed): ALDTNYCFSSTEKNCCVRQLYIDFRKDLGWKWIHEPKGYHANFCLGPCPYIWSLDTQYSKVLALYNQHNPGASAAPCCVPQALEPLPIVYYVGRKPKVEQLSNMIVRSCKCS
Sequence of AA-TGFB-007 (TGFB-007), TGF-BR2 ECD-TGFBR2 TM-TGFBR2 truncated ICD (Homo sapiens (Human)) (P37173 23-199, form in doubt): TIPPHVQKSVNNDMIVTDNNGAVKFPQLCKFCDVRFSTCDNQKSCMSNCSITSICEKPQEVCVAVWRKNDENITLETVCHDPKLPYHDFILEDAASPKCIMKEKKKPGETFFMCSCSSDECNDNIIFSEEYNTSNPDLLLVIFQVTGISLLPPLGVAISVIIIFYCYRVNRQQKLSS

For “recombinant TGF-B1 cytokine (from UniProt P01137 279-390) (ligand)”, the 5-Day Fold Expansion of NK cells, 10 ng/mL TGF-B1 [1] was 2 fold, the Average % Killing (SKOV-3), 10 ng/mL TGF-B1 [1] was 24.1% and the Average IFNg Secretion, 10 ng/mL TGF-B1 [1] was over 9000 pg/mL. For the same substance, the Average IP-10 Secretion, 10 ng/mL TGF-B1 [1] was 2150, the CD69, fold-change of MFI over no stimulation, High (0.05 ug/mL) [1] was 1.2 fold and the CD69, fold-change of MFI over no stimulation, Low (0.002 ug/mL) [1] was 1.4 fold. It also gave a CD69, fold-change of MFI over no stimulation, Med. (0.01 ug/mL) [1] of 1.2 fold, a GFP, fold-change of MFI over no stimulation, High (0.05 ug/mL) [1] of 0.8 fold and a GFP, fold-change of MFI over no stimulation, Low (0.002 ug/mL) [1] of 0.7 fold. For the same substance, the GFP, fold-change of MFI over no stimulation, Med. (0.01 ug/mL) [1] was 0.7 fold, the 5-Day Fold Expansion of NK cells, 10 ng/mL TGF-B1 [2] was 0.41 fold and the Average % Killing (SKOV-3), 10 ng/mL TGF-B1 [2] was 2.07%. It also gave an Average IFNg Secretion, 10 ng/mL TGF-B1 [2] of 1.68 pg/mL, a 5-Day Fold Expansion of NK cells, 10 ng/mL TGF-B1 [3] of 1.02 fold and an Average % Killing (SKOV-3), 10 ng/mL TGF-B1 [3] of 11.2%. For the same substance, the Average IFNg Secretion, 10 ng/mL TGF-B1 [3] was 7770 pg/mL, the Average IP-10 Secretion, 10 ng/mL TGF-B1 [3] was 2760 and the 5-Day Fold Expansion of NK cells, 10 ng/mL TGF-B1 [4] was 0.9 fold. For the same substance, the Average % Killing (SKOV-3), 10 ng/mL TGF-B1 [4] was 7.99%, the Average IFNg Secretion, 10 ng/mL TGF-B1 [4] was 3060 pg/mL and the Average IP-10 Secretion, 10 ng/mL TGF-B1 [4] was 1300. It also gave a 5-Day Fold Expansion of NK cells, 10 ng/mL TGF-B1 [5] of 1.11 fold, an Average % Killing (SKOV-3), 10 ng/mL TGF-B1 [5] of 8.77% and an Average IFNg Secretion, 10 ng/mL TGF-B1 [5] of 3070 pg/mL. For the same substance, the Average IP-10 Secretion, 10 ng/mL TGF-B1 [5] was 1230, the 5-Day Fold Expansion of NK cells, 10 ng/mL TGF-B1 [6] was 1.29 fold and the Average % Killing (SKOV-3), 10 ng/mL TGF-B1 [6] was 8.9%. It also gave an Average IFNg Secretion, 10 ng/mL TGF-B1 [6] of 3090 pg/mL, an Average IP-10 Secretion, 10 ng/mL TGF-B1 [6] of 762 and a 5-Day Fold Expansion of NK cells, 10 ng/mL TGF-B1 [7] of 1.6 fold. The Average % Killing (SKOV-3), 10 ng/mL TGF-B1 [7] was 11.8%, the Average IFNg Secretion, 10 ng/mL TGF-B1 [7] was 4640 pg/mL and the Average IP-10 Secretion, 10 ng/mL TGF-B1 [7] was 1040. It also gave a 5-Day Fold Expansion of NK cells, 10 ng/mL TGF-B1 [8] of 1.55 fold, an Average % Killing (SKOV-3), 10 ng/mL TGF-B1 [8] of 8.25% and an Average IFNg Secretion, 10 ng/mL TGF-B1 [8] of 2820 pg/mL. For the same substance, the Average IP-10 Secretion, 10 ng/mL TGF-B1 [8] was 686, the 5-Day Fold Expansion of NK cells, 10 ng/mL TGF-B1 [9] was 3.86 fold and the Average % Killing (SKOV-3), 10 ng/mL TGF-B1 [9] was 14.4%. The Average IFNg Secretion, 10 ng/mL TGF-B1 [9] was over 9000 pg/mL, the Average IP-10 Secretion, 10 ng/mL TGF-B1 [9] was 2340 and the 5-Day Fold Expansion of NK cells, 10 ng/mL TGF-B1 [10] was 3.06 fold. The Average % Killing (SKOV-3), 10 ng/mL TGF-B1 [10] was 18.8%, the Average IFNg Secretion, 10 ng/mL TGF-B1 [10] was over 9000 pg/mL and the Average IP-10 Secretion, 10 ng/mL TGF-B1 [10] was 2300. The 5-Day Fold Expansion of NK cells, 10 ng/mL TGF-B1 [11] was 2.52 fold, the Average % Killing (SKOV-3), 10 ng/mL TGF-B1 [11] was 14.4% and the Average IFNg Secretion, 10 ng/mL TGF-B1 [11] was 6640 pg/mL. For the same substance, the Average IP-10 Secretion, 10 ng/mL TGF-B1 [11] was 1410, the 5-Day Fold Expansion of NK cells, 10 ng/mL TGF-B1 [12] was 1.49 fold and the Average % Killing (SKOV-3), 10 ng/mL TGF-B1 [12] was 9.28%. It also gave an Average IFNg Secretion, 10 ng/mL TGF-B1 [12] of 3580 pg/mL, an Average IP-10 Secretion, 10 ng/mL TGF-B1 [12] of 685 and a 5-Day Fold Expansion of NK cells, 10 ng/mL TGF-B1 [13] of 3.26 fold. It also gave an Average % Killing (SKOV-3), 10 ng/mL TGF-B1 [13] of 20.4%, an Average IFNg Secretion, 10 ng/mL TGF-B1 [13] of 7170 pg/mL and an Average IP-10 Secretion, 10 ng/mL TGF-B1 [13] of 1350. The 5-Day Fold Expansion of NK cells, 10 ng/mL TGF-B1 [14] was 1.76 fold, the Average % Killing (SKOV-3), 10 ng/mL TGF-B1 [14] was 7.83% and the Average IFNg Secretion, 10 ng/mL TGF-B1 [14] was 3150 pg/mL. For the same substance, the Average IP-10 Secretion, 10 ng/mL TGF-B1 [14] was 938, the 5-Day Fold Expansion of NK cells, 10 ng/mL TGF-B1 [15] was 0.66 fold and the Average % Killing (SKOV-3), 10 ng/mL TGF-B1 [15] was 2.23%. For the same substance, the 5-Day Fold Expansion of NK cells, 10 ng/mL TGF-B1 [16] was 0.24 fold, the Average % Killing (SKOV-3), 10 ng/mL TGF-B1 [16] was 1.9% and the 5-Day Fold Expansion of NK cells, 10 ng/mL TGF-B1 [17] was 1.69 fold. The Average % Killing (SKOV-3), 10 ng/mL TGF-B1 [17] was 11.8%, the Average IFNg Secretion, 10 ng/mL TGF-B1 [17] was 6080 pg/mL and the Average IP-10 Secretion, 10 ng/mL TGF-B1 [17] was 1890.

Source: patent US20260055162A1
